± gives the standard deviation.
Test: protein stability index of a GFP-peptide fusion (GPS, HEK-293T) (PSI 1-6); higher = more stable
[1] = treatment: DMSO, c terminus: a fixed tail appended
[2] = treatment: MLN4924 1 uM, 8 h, c terminus: a fixed tail appended
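Further: 24-mer peptide tiles fused after GFP, lentivirally expressed, FACS-sorted into six equal bins by GFP/DsRed ratio, decoded by Illumina sequencing, PSI is the read-weighted mean bin number.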

Sequence | protein stability index [1] | protein stability index [2] | protein stability index (treatment: DMSO, c terminus: native) | protein stability index (treatment: MLN4924 1 uM, 8 h, c terminus: native)
IRKEMKLLEQAGSLKGSLSVEEQL [CRYL1] | 4.54 ± 0.53 | 4.372 ± 0.012 | – | –
SEVFGPERMPPSGAARSFQEVTEP [PXN] | 4.77 ± 0.32 | 5.19 ± 0.21 | – | –
SELCIWLGSQIKSLCNLEESITSA [FAM98B] | 1.97 ± 0.23 | 2.55 ± 0.18 | – | –
IPKVELQISIYGVKILEPKTKEVQ [GULP1] | 2.46 ± 0.51 | 1.98 ± 0.23 | – | –
EGPDLVPAALGSLTTAQIARSVWR [HES6] | 3.33 ± 0.39 | 3.59 ± 0.34 | – | –
KAYDHQTQELVAIKIIKNKKAFLN [DYRK1B] | 2.37 ± 0.22 | 2.62 ± 0.25 | – | –
AMAIINGSLYVFGGTTGYIYSTDL [KLHDC10] | 3.16 ± 0.2 | 2.74 ± 0.33 | – | –
AYDFPSPEWDTVTPEAKDLINKML [CAMK2A] | 3.24 ± 0.24 | 3.58 ± 0.34 | – | –
GGGPEATLSISDVRTLSEPPDKGE [ZBTB22] | 5.33 ± 0.29 | 5.44 ± 0.31 | – | –
AFVVYLETETLVTREAVTEILGIE [TSN] | 2.58 ± 0.6 | 2.52 ± 0.7 | – | –
CSITGDSSRVIAASYDKTVRAWDL [WDR88] | 2.57 ± 0.2 | 2.6 ± 0.2 | – | –
KQLICPICLEMFTKPVVILPCQHN [TRIM63] | 2.97 ± 0.31 | 3.01 ± 0.43 | – | –
PAGAEYCSSARHPAWGHCFYRLYQ [SCNN1D] | 2.08 ± 0.38 | 2.68 ± 0.35 | – | –
HLTRHQRTHTGEKPYKCTLCGENF [ZNF263] | 3.36 ± 0.53 | 3.45 ± 0.51 | – | –
RPYMCKECGKAFSQNSSLVQHERI [ZNF8] | 2.82 ± 0.16 | 3.24 ± 0.45 | – | –
FTPPTSLTRAGMSYYNSPGLHVQH [CCDC6] | 2.49 ± 0.52 | 2.84 ± 0.34 | – | –
VKEELSQKFDTLYAILDEKKSELL [TRIM63] | 3.6 ± 0.41 | 3.58 ± 0.17 | – | –
LEKDFSIYGGELGPMMKLKRHFVA [ACSBG2] | 2.23 ± 0.2 | 2.26 ± 0.53 | – | –
ESIQQTARSIAEQAHELAYDPNYM [PPTC7] | 4.52 ± 0.19 | 4.3 ± 0.37 | – | –
DENGRPYSPSQYALQYAGDGSVLL [NFE2L1] | 3.57 ± 0.39 | 3.6 ± 0.34 | – | –
AYPLELQGQPDPAPRPGPPAGTPP [MOSPD3] | 5.14 ± 0.23 | 5.01 ± 0.14 | – | –
CSCQADPRHQGHRVQPVKDTAHDF [TRIM35] | 3.42 ± 0.31 | 3.56 ± 0.14 | – | –
ITHSTVGSKGEKDLGASSLHVNGE [EHMT1] | 4.9 ± 0.2 | 5.03 ± 0.24 | – | –

Sequence | protein stability index [1] | protein stability index [2] | protein stability index (treatment: DMSO, c terminus: native) | protein stability index (treatment: MLN4924 1 uM, 8 h, c terminus: native)
DEQKEEEEEEGEEEELIRIFQEQQ [FAM9B] | 5.51 ± 0.34 | 5.47 ± 0.29 | – | –
VFGTSLTARVIIPLLKDEGFAVKA [GFOD1] | 2.7 ± 0.57 | 2.34 ± 0.25 | – | –
VLLEEPLPLETARESPSFKLEPME [ZNF263] | 4.02 ± 0.24 | 4.284 ± 0.038 | – | –
ETVLALVNCISPLKYFSDFRPYFT [DENND6A] | 2.54 ± 0.48 | 3.21 ± 0.83 | – | –
TSRDRKDHMVRMHLYPADFRFDKP [ZNF511] | 2.87 ± 0.31 | 3.22 ± 0.14 | – | –
STQIRALTEQQEQLRGQLQDLDSR [RASAL3] | 5.14 ± 0.27 | 5.12 ± 0.19 | – | –
IVAGGYDERVLENVEHYQELKKMV [ALG2] | 3.14 ± 0.25 | 3.2 ± 0.11 | – | –
LKLMDRHKKDCAREKPFKCQECGK [ZNF75A] | 3.74 ± 0.37 | 3.95 ± 0.28 | – | –
LSPDPEERPGAEGAPLLPPPLPPP [ACBD3] | 5.27 ± 0.15 | 5.32 ± 0.17 | – | –
GGIVTDTPASNHLPGWEDIESKIP [SLC19A2] | 4.77 ± 0.17 | 4.87 ± 0.12 | – | –
KQKVSRIERSSSFSSITDSTMSLN [DVL3] | 4.27 ± 0.049 | 4.43 ± 0.16 | – | –
EPSQMLKHAVVNLINYQDDAELAT [CTNNB1] | 4.16 ± 0.32 | 4.25 ± 0.26 | – | –
YQGGPPRPPMGMRPPVMSQGGRY [ZNF207] | – | – | 2.56 ± 0.27 | 2.84 ± 0.3
QLGYLLFGTQVENFSTFIKCIFTQ [PKD2L1] | 2.83 ± 0.41 | 3.27 ± 0.55 | – | –
RQMAFDFARVKKGADGVMRTMAPE [SNAP91] | 3.47 ± 0.38 | 3.43 ± 0.16 | – | –
VRLRTLLCKVLGVLFSVAGGLFVG [CLCN6] | 2.87 ± 0.14 | 2.88 ± 0.17 | – | –
LSPAGSSQEAADTPDTRHPCSLGS [YJU2B] | 5.24 ± 0.21 | 5.3 ± 0.23 | – | –
IETEDQIDKKPVSEKTDESDTIPY [MIA2] | 5.53 ± 0.3 | 5.3 ± 0.36 | – | –
HNDRVQALSYAQHTRQLISCGGDG [WDFY2] | 2.77 ± 0.28 | 2.53 ± 0.17 | – | –
MDATNAFKKTAYELLDEKLLARGT [FEM1A] | 3.8 ± 0.23 | 3.85 ± 0.25 | – | –
ENRRKVLYQRAPRNIHRHVILSEI [TCF25] | 2.62 ± 0.073 | 2.75 ± 0.31 | – | –
IKEIDEHAPGVPRILVGNRLHLAF [RAB40C] | 2.21 ± 0.21 | 2.06 ± 0.28 | – | –
KKKVGNYYTTPIYRFRMKCHLCVN [YJU2B] | 2.21 ± 0.33 | 2.19 ± 0.3 | – | –

Sequence | protein stability index [1] | protein stability index [2] | protein stability index (treatment: DMSO, c terminus: native) | protein stability index (treatment: MLN4924 1 uM, 8 h, c terminus: native)
PKEPAPPNGSAAEPPTEAASREEN [PALM] | 5.57 ± 0.25 | 5.37 ± 0.43 | – | –
MDPQNQHGSGSSLVVIQQPSLDSR [SPRY1] | 4.69 ± 0.096 | 4.65 ± 0.13 | – | –
TVGTPDYIAPEVFMQTGYNKLCDW [STK38L] | 2.82 ± 0.16 | 2.97 ± 0.37 | – | –
LFAPLKLQMEFKAVQQVQRLPFLS [POMP] | 2.51 ± 0.82 | 2.46 ± 0.75 | – | –
YDCGEDFYRSTAPSEDIWKKFELV [MYCL] | 2.96 ± 0.19 | 3.33 ± 0.22 | – | –
DLSGLPLQSSKNSYSFQNPSSFDP [RNF180] | 3.75 ± 0.065 | 3.78 ± 0.074 | – | –
LYPSLGAGYRLGPAQPGADSSFPP [TBX6] | 3.38 ± 0.039 | 3.39 ± 0.24 | – | –
IQGADTIRCVYILDPWFAGSSNVG [CRY1] | 2.81 ± 0.56 | 2.6 ± 0.54 | – | –
ARPWTRDSASLPRKPSVPWQRQMD [RASAL3] | 2.73 ± 0.22 | 2.94 ± 0.42 | – | –
GQVTPRGLRLRLPRRESLLRGLCR [C6orf223] | 3.24 ± 0.33 | 3.23 ± 0.34 | – | –
RAILYPCHGMSSQLVRYSADGLLQ [GALNT9] | 2.69 ± 0.22 | 2.76 ± 0.27 | – | –
LLEDMRASEAFHWDERGRAAAYSP [ANKRD9] | 2.7 ± 0.44 | 3.18 ± 0.54 | – | –
RVLSPLHRGPSGHTEASAQRSHMG | 4.1 ± 0.063 | 4.19 ± 0.16 | – | –
GMKIDLIDGKGRGVIATKQFSRGD [KMT5A] | 3.49 ± 0.15 | 4 ± 0.63 | – | –
PSRVHASEVESAVWYVKKFGRYLE [FBXO39] | 2.42 ± 0.16 | 2.27 ± 0.5 | – | –
RRGGGPVFPAPVVGSGGATSGKLL [ZBTB22] | 4.104 ± 0.027 | 4.33 ± 0.29 | – | –
KFLVGTVGSDPLIKSDEECRDLVD [KLHL20] | 4.41 ± 0.78 | 4.14 ± 0.47 | – | –
GILERYWLSSRAAAIKVNDSVPFH [MYORG] | 2.02 ± 0.42 | 1.78 ± 0.28 | – | –
YDFIVTKARGKSGPLFNFDVHDDV [FAM50A] | 2.65 ± 0.23 | 2.78 ± 0.45 | – | –
LGQDRQVPLWGQLLLFLVFVIVLF [EMD] | 2.83 ± 0.58 | 2.79 ± 0.76 | – | –
RPGHLPGLLLGSHGLLGSPVRAAA [CDC25B] | 3.31 ± 0.53 | 3.09 ± 0.42 | – | –
RITGLSPGRSALIVAVLCYINLLN [SPNS1] | 2.35 ± 0.47 | 2.14 ± 0.29 | – | –
LHSQEDDDSSSESGSGNGSSTLNP [NOL4L] | 5.39 ± 0.2 | 5.48 ± 0.17 | – | –

Sequence | protein stability index [1] | protein stability index [2] | protein stability index (treatment: DMSO, c terminus: native) | protein stability index (treatment: MLN4924 1 uM, 8 h, c terminus: native)
LGQEFDEVTADDRKVKSTITLDGG [FABP4] | 5.16 ± 0.21 | 5.32 ± 0.33 | – | –
NNIMKCRSRYDGHRIWMYNCHIGG [LOXL2] | 2.5 ± 0.69 | 2.33 ± 0.42 | – | –
MDHPSREKDERQRTTKPMAQRSAH [CSNK1G1] | 5.34 ± 0.22 | 5.09 ± 0.57 | – | –
MYSSSCETTRNTTGIEESTDGMIL [LARP4] | 4.33 ± 0.24 | 4.48 ± 0.23 | – | –
IAENGVSERDSEAAKQNHVTADDF [EHMT1] | 5.39 ± 0.15 | 5.42 ± 0.11 | – | –
DCILRDTSEDLRLQCDAVNLAFGR [TEKT4] | 3.4 ± 0.13 | 3.48 ± 0.19 | – | –
RLLGSARPELGAALGIYGAPYAAA [IRX6] | 2.27 ± 0.42 | 2.44 ± 0.47 | – | –
NTSLHVFVLDENDNAPAVLHPRPD [PCDHGC5] | 3.49 ± 0.27 | 3.51 ± 0.2 | – | –
KILDELEKVLDQVETELQRRNEET [GDAP1] | 3.08 ± 0.1 | 3.53 ± 0.081 | – | –
LASYLEKVRALEEANADLEVKIRD [KRT13] | 3.52 ± 0.22 | 3.56 ± 0.26 | – | –
RHWHRPVLMAVSVHSERKLLPLVT [SCNN1D] | 2.23 ± 0.37 | 2.11 ± 0.26 | – | –
EALCEEDLLLWIQKHTEVETVDLV [DENND6A] | 3.37 ± 0.25 | 3.08 ± 0.27 | – | –
EQEKEAQHKDQTAALPLAAEETAN [MAP2] | 5.66 ± 0.12 | 5.5 ± 0.4 | – | –
VLPPRQPSALVPSVTEYRLDGHTI [MYBL2] | 3.35 ± 0.35 | 3.41 ± 0.24 | – | –
FSAHYDAVEAELKSSTVGLVTLND [FAM50A] | 3.86 ± 0.16 | 3.94 ± 0.32 | – | –
FVLQAIGIPGWGFSGWISALVVPK [SCAMP3] | 3.08 ± 0.53 | 2.88 ± 0.37 | – | –
TPVVLVGNKSDLKQLRQVTKEEGL [RIT1] | 4.54 ± 0.15 | 4.59 ± 0.32 | – | –
MLSKGLKRKREEEEEKEPLAVDSW [SERTAD1] | 4.84 ± 0.25 | 4.87 ± 0.092 | – | –
RKMLEQGYSPNGRDANGWTLLHFS [ASB7] | 2.34 ± 0.14 | 2.49 ± 0.21 | – | –
QQIHVVSQFKILVSLLENNIYVHD [VPS39] | 3.08 ± 0.059 | 3.23 ± 0.28 | – | –

— the supplement of paper PMC10567573
